Columns and labels:
[1] = target: prefusion stabilized trimeric SARS-CoV-2 spike protein ectodomain (S-ECD) (SARS-CoV-2) (UniProt P0DTC2); test: ELISA
[2] = target: prefusion stabilized trimeric SARS-CoV-2 spike protein ectodomain (S-ECD) (SARS-CoV-2) (UniProt P0DTC2); test: BLI

For “ACE2 monomer, ACE2(1-615)-(GGGGS)5-HRV3C-eGFP-His8 (from UniProt Q9BYF1-1 18-615) (domain or fragment)”, which IC50 [1] is on record?
Its IC50 is 27 nM.

And the Kd [2]?
Its Kd is 25 nM.

— paper doi:10.1101/2020.08.31.274704
